The results in this text go back to publication PMC6996395.

Holding throughout (assay): in situ proximity ligation assay
Settings in all cases: reference: wild-type R-region

The target of assay [1] is CFTR (split-CFTR: front half, R-region and back half as separate polypeptides) back half, 837-1480 (UniProt P13569).
Assay [2] has as its target CFTR (split-CFTR: front half, R-region and back half as separate polypeptides) front half, 1-634 (UniProt P13569).
For assay [3] the target is unchanged. This is another data set of the same source.

“Also recorded” adds a separate entry of the source.

Sequence of CFTR (split-CFTR: front half, R-region and back half as separate polypeptides) R-region, 635-836 (from UniProt P13569) S686D (P13569 1-634, stated change not applied): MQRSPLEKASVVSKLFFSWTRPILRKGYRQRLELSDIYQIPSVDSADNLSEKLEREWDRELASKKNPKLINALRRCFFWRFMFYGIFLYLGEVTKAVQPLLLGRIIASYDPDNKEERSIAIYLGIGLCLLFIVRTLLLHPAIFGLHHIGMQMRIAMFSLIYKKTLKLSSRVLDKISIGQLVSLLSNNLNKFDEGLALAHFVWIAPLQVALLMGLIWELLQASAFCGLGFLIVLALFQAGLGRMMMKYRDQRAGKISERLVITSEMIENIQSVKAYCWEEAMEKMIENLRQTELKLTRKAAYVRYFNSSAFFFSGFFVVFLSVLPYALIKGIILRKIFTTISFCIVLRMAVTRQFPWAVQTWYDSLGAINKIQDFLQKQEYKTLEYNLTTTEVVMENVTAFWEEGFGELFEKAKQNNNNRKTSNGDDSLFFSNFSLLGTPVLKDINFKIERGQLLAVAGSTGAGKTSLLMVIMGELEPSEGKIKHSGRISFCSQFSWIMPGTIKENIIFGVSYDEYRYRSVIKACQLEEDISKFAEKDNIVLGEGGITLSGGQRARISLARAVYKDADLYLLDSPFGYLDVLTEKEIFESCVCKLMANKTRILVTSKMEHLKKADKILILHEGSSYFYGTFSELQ

For “CFTR (split-CFTR: front half, R-region and back half as separate polypeptides) R-region, 635-836 (from UniProt P13569) S641A/T682A”, the “other: PLA CTCF” value in assay [1] (sites S641,T682) was “stronger; reference 3.41 ± 0.20”; in assay [2] (sites S641,T682) it was “weaker; reference 3.90 ± 0.18; also recorded: stronger; reference 7.91 ± 0.21”; in assay [3] (sites S641,T682) it was “stronger; reference 3.29 ± 0.24”.

“CFTR (split-CFTR: front half, R-region and back half as separate polypeptides) R-region, 635-836 (from UniProt P13569) S686A”: the figures for the “other: PLA CTCF” value in assay [1] (sites S686), in assay [2] (sites S686) and in assay [3] (sites S686) were “weaker; reference 3.41 ± 0.20”, “stronger; reference 3.90 ± 0.18; also recorded: same; reference 5.67 ± 0.55; also recorded: weaker; reference 7.91 ± 0.21” and “weaker; reference 3.29 ± 0.24”, respectively.

Turning to “CFTR (split-CFTR: front half, R-region and back half as separate polypeptides) R-region, 635-836 (from UniProt P13569) S686D”, the “other: PLA CTCF” value is “same; reference 5.67 ± 0.55; also recorded: weaker; reference 7.91 ± 0.21” in assay [2] (sites S686) and “stronger; reference 3.29 ± 0.24” in assay [3] (sites S686).
